T1: human FcεRIα protein (alpha chain of the high affinity IgE receptor) (human, UniProt P12319 26-201)
T1 construct: Purified soluble protein used in solution; The embodiments and claims speak of the extracellular region 1-176
T1 sequence (looked up): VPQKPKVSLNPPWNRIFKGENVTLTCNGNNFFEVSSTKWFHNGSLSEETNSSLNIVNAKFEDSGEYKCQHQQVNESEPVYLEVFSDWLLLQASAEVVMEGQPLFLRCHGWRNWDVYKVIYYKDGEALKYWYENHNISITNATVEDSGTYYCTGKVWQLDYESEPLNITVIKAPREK

B1: Alexa Fluor 488-labeled 367C IgE-Fc (human IgE-Fc Cε3-Cε4 C328A/K367C double mutant) (other)
chain: ADPAADSNPRGVSAYLSRPSPFDLFIRKSPTITCLVVDLAPSCGTVNLTWSRASGKPVNHSTRKEEKQRNGTLTVTSTLPVGTRDWIEGETYQCRVTHPHLPRALMRSTTKTSGPRAAPEVYAFATPEWPGSRDKRTLACLIQNFMPEDISVQWLHNEVQLPDARHSTTQPRKTKGSGFFVFSRLEVTRAEWEQKDEFICRAVHEAASPSQTVQRAVSVNPGKAADDDDKRYLDPAFLYKVRMNEDLGKPIPNPLLGLDSTRTGHHHHHH
modifications: Alexa Fluor 488 maleimide dye on Cys 367 (Dorrington and Bennich numbering)
notes: Expressed in insect cells; also called labeled IgE-Fc
B2: unlabeled wild type IgE-Fc (human IgE-Fc Cε3-Cε4) (other)
chain: ADPCADSNPRGVSAYLSRPSPFDLFIRKSPTITCLVVDLAPSKGTVNLTWSRASGKPVNHSTRKEEKQRNGTLTVTSTLPVGTRDWIEGETYQCRVTHPHLPRALMRSTTKTSGPRAAPEVYAFATPEWPGSRDKRTLACLIQNFMPEDISVQWLHNEVQLPDARHSTTQPRKTKGSGFFVFSRLEVTRAEWEQKDEFICRAVHEAASPSQTVQRAVSVNPGK
notes: also called unlabeled IgE-Fc; unlabeled IgE

Columns and labels:
[1] = biological target: T1, human FcεRIα protein (alpha chain of …); test: fluorescence quenching receptor binding titration, 96-well plate
Procedure: Binding buffer conditions were optimized to improve reproducibility of the binding assay in a 96-well plate format.
(§1) Fluorescence Measurement. Samples were monitored by fluorescence using a Synergy 4 Fluorometer (BioTek) in black 96-well Costar fluorescence plates (Corning). […] The read-type for typical measurements was Endpoint. All measurements were recorded in duplicate.

[2] = biological target: T1, human FcεRIα protein (alpha chain of …); test: fluorescence quenching competition assay; competitor of 488-labeled 367C IgE-Fc for FcεRIα
Procedure: Initial experiments were conducted with unlabeled IgE-Fc as the competitor.
as §1

Binder | Kd [1] [nM] | EC50 [2] [nM]
B1 | ~22 | –
B2 | – | ~75
